Drawing on the supplement of paper PMC12042874, this text covers amyloid nucleation score for 103 substances.

± gives the uncertainty stated by the source.

The data set can be described thus: amyloid nucleation score (Sup35N fusion, yeast selection) (log enrichment); library NNK1; higher = more nucleation; inactive = no reads after selection. An outline of the steps:
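On medium lacking adenine and uracil, psi-negative yeast expressing peptides of 20 random codons fused to Sup35N were grown 7 days at 30°C after a 24-hour induction with 100 μM copper sulfate. Illumina sequencing of input and output plasmid inserts gave the reads, and sequences under 100 input reads were excluded. The nucleation score is the DiMSum log enrichment of output over input reads, centred on the mode score of non-aggregating sequences.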

SCLCFLNPTNFEKLLISFVP gave an amyloid nucleation score of 0.725 ± 0.53.
With PNLPGSKDNLTDRF the figure was 0.488 ± 1.2.
With VYLYMPPIDLL the figure was -0.021 ± 0.46; with SVNVRVTDYKYRGLFACAFG, 0.529 ± 0.58; with TKGYLWPRKQTAFVWIAMCG, -0.187 ± 0.27.
QVLVYNDFRYFEFHRDVFLR registered an amyloid nucleation score of 8.45 ± 0.073.
The figure for SFFFSRVGSLFCLRFYDVFG is -0.858 ± 1.3; for PWTSHVNFRSSGYLSNCLNF it is -0.145 ± 0.64.
With YCTCRLVKFEVDW the entry was “inactive”; with AGFLS, -0.388 ± 0.62; with WSLPAVRRCHNELEYCNTRR, 0.107 ± 0.34.
The figure for PFFTIKWCNFSSFIGYEPLL is -0.161 ± 0.31.
Regarding FINVAFGCVYVRTNCLRMEG, the amyloid nucleation score came out at 7.116 ± 0.059.
The figure for YMNTFVIRSMHSLLNGYAFS is 0.429 ± 0.88; for INLGVMWGVPTELLVCNF it is “inactive”; for VKVHEDSIRMEENSSDTYFK it is -0.218 ± 0.34.
With GKLVVFNFL the figure was 8.483 ± 0.048; with SVDVHYAGRSC, 0.552 ± 0.36.
Regarding LGRGTKMLLKVYTVRTSNYR, the amyloid nucleation score came out at 0.592 ± 0.58.
With GGELMAFTA the figure was 0.553 ± 0.49; with FRIRRGKRSVHTVNFAFAEV, 0.583 ± 0.8.
YVEFVFNIYSARFEWLLI showed an amyloid nucleation score of -0.463 ± 0.75.
With VPNASLSWISFISHLFYMSS the figure was 0.034 ± 0.37; with ESCVRYRSACSMFV, 0.902 ± 0.47; with RFISCMFFKYIPLQCFVLGR, 0.548 ± 0.39.
With RYSCY the figure was 0.152 ± 0.6; with MLWRYKRCNFARMFNLRVYV, -0.822 ± 0.65; with CLCDAISYSGIIKDVDKVCE, 0.875 ± 0.93.
The figure for FCLFKFDCSLSWPQVYRYRL is 1.09 ± 0.36; for GVSKCQDEYSGLGNRNYM it is -1.28 ± 0.59; for QLSRSVWRRMRRQQKHPLTG it is 1.62 ± 0.81.
As to STILKWRSWLARFLIHMVVV, the amyloid nucleation score stood at 0.659 ± 0.47.
As for ILISVSLNMWY, the amyloid nucleation score worked out at 2.43 ± 0.13.
Regarding NGRCKYLRQNIFSVLLIMRR, the amyloid nucleation score worked out at 0.324 ± 1.
With FNYYSA the figure was -0.012 ± 0.48; with HICTTFCTSMFSRTSQWSGG, 0.673 ± 0.3; with DPQTGDGVLAMNKWEPYRGL, 0.697 ± 0.48.
Regarding TEEKSRVRLFNRRHRGISRG, the amyloid nucleation score was 3.95 ± 0.091.
With RSICWKSFRRIFFDRW the figure was 0.19 ± 0.85; with ADVATMSRGEKGASGGLK, 0.508 ± 0.54.
In turn, VSKDSSIQRGSRQFCYLAYS yielded an amyloid nucleation score of 1.08 ± 0.61.
The figure for LYVEYKRAMCVMGVSLWVN is 0.224 ± 0.19; for FLKSYLLRC it is 0.012 ± 0.63.
With YFYDTWGA the figure was -0.235 ± 0.47; with NSAVYSCL, “inactive”; with NPSIPCPQAACNMWY, 0.819 ± 0.36.
In the case of QFESIGCVEWYMFGIREVFS, the amyloid nucleation score is -0.318 ± 0.47.
In turn, SNRALMADLKERNVINTPIN had an amyloid nucleation score of -0.385 ± 1.9.
The figure for GGYRVLIFSIFRG is 0.599 ± 0.51; for TGFKI it is -0.973 ± 0.97.
Take CNSFCGMHCGNV: the amyloid nucleation score amounted to 0.238 ± 0.62.
The figure for SMFYLSKFAVEFWRRMS is -0.097 ± 0.44.
With ILSKVCGFSVARIWCSCISI the figure was 6.65 ± 0.088.
The figure for IKLHSEGRIYHINFACRSVC is 0.199 ± 0.24.
For the substance YGHLDPFTKLWSLWGIIMNW, the amyloid nucleation score result is “inactive”.
With NIGYSLAVMSAMMLLHFNFG, the amyloid nucleation score turned out to be 2.95 ± 0.082.
With NVNETT the figure was -0.547 ± 1.6; with TIALM, 0.335 ± 0.33; with RDAEWTMIIIIARNQMKAFS, -0.162 ± 0.4.
With CYKLGYGFVHFSAIMVNIIS the figure was -1.22 ± 1.7; with ETFNWLSCIVRRSQKYAEET, -0.242 ± 1.2; with CSCACCVELHQL, 6.611 ± 0.062.
As to RKLLSISL, the amyloid nucleation score came out at 0.22 ± 0.71.
With DTNQGYGVSGQIVKGRICFN the figure was -0.681 ± 0.47.
The figure for MWGARLRVWPGYERLSAFNH is -0.552 ± 0.44; for RIVSSFLLSVVGCGMEVVRV it is 0.349 ± 0.63; for ATKSRLVNILTGKDEALTGL it is -0.684 ± 0.42.
The figure for SNTTIFFSFNRVPTISLNHS is 3.82 ± 0.1; for VCMRTAGCFSDTYGVHGFKI it is 1.21 ± 0.24; for MVTDPWISTLSSFHLWGGFM it is -0.318 ± 0.93.
As for SPFPGKEFNGIVCPLPYSMI, the amyloid nucleation score is -0.366 ± 0.56.
The figure for LDGVFNTTIATVNSFREYLM is 0.132 ± 0.48; for CQSLPKFLHANVKYNSVSGA it is -0.16 ± 0.24.
The figure for WEVSPIGVPYSY is -0.117 ± 0.57; for KFIFVGNGECMRPGCSDDSL it is 1.99 ± 0.38; for YYGYVLFQGFSM it is 1.82 ± 0.19.
The figure for KILTVHPSHNDPC is -1.32 ± 1.9; for VDVANGLADVYLLQ it is -0.009 ± 0.57; for CLAGGYSGNAEGMIIETRAK it is -0.171 ± 1.7.
Turning to TCCVKCGCRVQRMMMCLV, the amyloid nucleation score is -0.003 ± 0.8.
With GVVFPWSVLMFSCSSCLAVP the figure was 0.605 ± 0.61.
The figure for RFSQWLPFWSVGGELQSCFC is 0.239 ± 0.68.
Turning to FGYSAGHERMVHCVGLRSSG, the amyloid nucleation score was 1.37 ± 0.69.
With MSLDGD the figure was 0.868 ± 0.29; with YFFDIGVDSCMRFDIRVVET, 1.77 ± 0.6.
GSGVDSRVSCKKFILSLVGA displayed an amyloid nucleation score of -0.39 ± 1.7.
In turn, HSEIHVALYCASVML displayed an amyloid nucleation score of 3.38 ± 0.097.
With FEYNRYRLLYTTYLGPVGGI the figure was -1.56 ± 0.64; with YTFGWLLIKPHLRPAFKPHR, -1.75 ± 2.7; with AASRLVRDDWTLISGHPSKA, 0.844 ± 0.73.
Turning to IFGITNSMLVFMGYCLIHCL, the amyloid nucleation score is -0.895 ± 1.
TMSRQHKTGPNGSRAL gave an amyloid nucleation score of -0.073 ± 0.79.
The figure for YVDDGMCSAICYSTVNNMSN is 8.666 ± 0.047.
The figure for LGRSWWYYSQLWDSRHLSF is -0.38 ± 1.5; for KVLGWNMGVHFNHGGRSFVM it is 0.461 ± 0.54.
Substance LSYEDSSFNFLNSFYIKSWW registered an amyloid nucleation score of -0.161 ± 0.5.
The figure for QWKGSFSSV is -0.873 ± 1.1; for STCLGGERSYRYVMWLVLVV it is 0.148 ± 0.42; for IWLRS it is 0.779 ± 0.62.
The figure for VCLVDSSWGW is 3.86 ± 0.085.
The figure for VLLFVRLILWTEGRYNCIMG is -0.801 ± 1.2.
With LCKRNVKCQFL, the amyloid nucleation score amounted to 0.192 ± 0.59.
With VLYGLGSWLVRNIVLSYSVV the figure was 0.106 ± 0.24.
